# According to paper PMC12338438:
# T1: PBP2a (penicillin binding protein 2a), recombinant soluble (Staphylococcus aureus (MRSA)?, UniProt Q7DHH4 25-668)
# T1 sequence: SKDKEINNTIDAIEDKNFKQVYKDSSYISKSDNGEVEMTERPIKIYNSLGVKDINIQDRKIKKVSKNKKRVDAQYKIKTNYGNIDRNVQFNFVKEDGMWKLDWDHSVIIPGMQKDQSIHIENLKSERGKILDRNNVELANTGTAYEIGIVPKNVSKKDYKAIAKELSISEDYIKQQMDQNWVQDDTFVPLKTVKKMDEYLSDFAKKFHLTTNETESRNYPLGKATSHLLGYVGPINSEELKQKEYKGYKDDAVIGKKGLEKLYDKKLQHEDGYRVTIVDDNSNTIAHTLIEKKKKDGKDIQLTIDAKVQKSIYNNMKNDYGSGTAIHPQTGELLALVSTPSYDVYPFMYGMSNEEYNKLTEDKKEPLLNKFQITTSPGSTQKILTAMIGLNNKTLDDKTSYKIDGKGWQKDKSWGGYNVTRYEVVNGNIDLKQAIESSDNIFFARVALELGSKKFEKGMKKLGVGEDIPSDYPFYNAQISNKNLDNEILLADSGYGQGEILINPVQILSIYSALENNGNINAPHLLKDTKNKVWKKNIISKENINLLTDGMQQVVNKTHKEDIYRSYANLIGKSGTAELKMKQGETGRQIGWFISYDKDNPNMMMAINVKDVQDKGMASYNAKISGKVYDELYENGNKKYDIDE
# B1: PBP2a-Apt1T1 (ssDNA)
# DNA: ATGCCATCCTACCAACCCGGTGTTCGTGTGGGTGTAGAGGGGGCGAAGGATGGC
# Experiments:
# Test in all cases: fluorescence dot blot
# [1] = target: thrombin (UniProt P00734;P00734 328-363;364-622)
# [2] = target: myeloperoxidase (MPO) (UniProt P05164;P05164 165-273;279-745)
# myeloperoxidase (MPO), sequence (P05164 165-273, chain 1 of 2): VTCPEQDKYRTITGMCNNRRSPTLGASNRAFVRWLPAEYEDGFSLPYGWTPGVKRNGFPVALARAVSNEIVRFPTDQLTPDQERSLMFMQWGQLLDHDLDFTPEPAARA
# myeloperoxidase (MPO), sequence (P05164 279-745, chain 2 of 2): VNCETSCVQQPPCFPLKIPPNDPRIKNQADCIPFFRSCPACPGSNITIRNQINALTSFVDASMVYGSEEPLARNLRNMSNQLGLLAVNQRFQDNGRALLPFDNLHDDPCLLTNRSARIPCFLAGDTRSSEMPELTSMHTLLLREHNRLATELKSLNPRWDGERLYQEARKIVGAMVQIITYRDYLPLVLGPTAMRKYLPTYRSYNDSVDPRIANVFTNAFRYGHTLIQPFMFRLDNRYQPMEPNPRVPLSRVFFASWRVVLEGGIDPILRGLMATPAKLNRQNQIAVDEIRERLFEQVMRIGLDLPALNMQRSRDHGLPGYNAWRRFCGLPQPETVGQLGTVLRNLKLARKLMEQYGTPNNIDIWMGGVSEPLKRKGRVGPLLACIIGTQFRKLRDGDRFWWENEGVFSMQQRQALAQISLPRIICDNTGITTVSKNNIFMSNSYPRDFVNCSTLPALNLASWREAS
# [3] = target: T1, PBP2a (penicillin binding protein 2a), …
binder,measurement,setting,value
B1,binding result,[1],no binding
same,binding result,[2],no binding
same,Kd,[3],58 ± 11 nM
